Results published in article PMC1780049, “Functional analysis of Arabidopsis WRKY25 transcription factor in plant defense against Pseudomonas syringae”.

T1: WRKY25 (Arabidopsis, UniProt O22921 1-393)
T1 sequence: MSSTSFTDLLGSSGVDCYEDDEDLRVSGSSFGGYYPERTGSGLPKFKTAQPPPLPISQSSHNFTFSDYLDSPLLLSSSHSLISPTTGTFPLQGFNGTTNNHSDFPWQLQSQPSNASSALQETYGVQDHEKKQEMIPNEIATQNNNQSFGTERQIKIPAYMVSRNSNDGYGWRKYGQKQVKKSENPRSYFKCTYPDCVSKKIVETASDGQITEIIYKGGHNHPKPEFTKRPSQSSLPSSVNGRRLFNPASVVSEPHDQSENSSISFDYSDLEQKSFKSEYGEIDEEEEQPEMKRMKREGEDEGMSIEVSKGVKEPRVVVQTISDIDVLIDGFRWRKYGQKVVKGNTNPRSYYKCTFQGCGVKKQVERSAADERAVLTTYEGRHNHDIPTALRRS


Target: T1, WRKY25
Assay: EMSA; poly(dIdC) 5 ug; 12 ul nuclear extraction buffer (25 mM HEPES/KOH pH 7.5, 40 mM KCl, 0.1 mM EDTA, 10% glycerol, 1 mM DTT, PMSF), 5 ug poly(dIdC), 1 ug protein, 2 ng labelled dsDNA; room temperature 30 min; 10% PAGE in 0.5x TBE at 4 C
Conditions: protein: recombinant, tags: His-tagged, pET32a (EcoRI/XhoI) vector fusion, (Klenow labelled, ~10^5 cpm/ng)

Row | Binder | binding result
1 | Pchn5 (dsDNA) DNA 1: GGAACTTGACCATCCGTTGACCGGGCTGCAGGAATTCG DNA 2: CGAATTCCTGCAGCCCGGTCAACGGATGGTCAAGTTCC | binds
2 | mPchn5 (dsDNA) DNA 1: GGAACTTGAACATCCGTTGAACGGGCTGCAGGAATTCG DNA 2: CGAATTCCTGCAGCCCGTTCAACGGATGTTCAAGTTCC | no binding
